In PMC8458385, “Molecular basis for PICS-mediated piRNA biogenesis and cell division” (Nature Communications, 2021):
Each block holds one binder with its values, some of them ahead of it.

B3: TOFU-6^RRM (residues 2-92) (domain or fragment, C. elegans, UniProt Q09293 2-92, looked up)
chain: ASSSTAYYLKDAGFHIRNIPKAWNDWNLFHVFQNFGKVSYCRVVGQSNDGQVQLGFVNMMSVADADEVRKNLNDGNLIGENFTLKVTDHKN
notes: TOFU-6, C. elegans, RRM domain, residues 2-92; Gene codon-optimised and synthesised; for the crystal co-expressed with PICS-1^RRM from a modified pETDuet-1; also called TOFU-6 RRM domain; TOFU-6^C; source: E. coli BL21(DE3), purified (Ni-NTA, TEV, second Ni-NTA; complex with PICS-1^RRM also Superdex 75); not shown: His tag (from the Ni-NTA purification), N-terminal, cleaved
B6: ERH-2 (natural protein, C. elegans, UniProt Q20057 1-113, looked up)
chain: MSTSSHTVLLIQTSPRLDSRTWGDYESVTDALDALCKMFEDFLSKKSAAPVTYDVSQVYEFLDKLSDVSMMIFNRETGQYIGRTRAWIKQQVYEMMRGRCQHPEGGEKVIVGY
notes: ERH-2, C. elegans, amplified from a cDNA library; also called ERH-2 wild type; source: E. coli BL21(DE3), purified (Ni-NTA, TEV cleavage, second Ni-NTA); not shown: His tag (inferred from the Ni-NTA purification), N-terminal, cleaved

Experiments:
Details in all cases: both partners purified
ERH-2 [1] = biological target: T1, ERH-2 (C. elegans, UniProt Q20057 1-113); assay: ITC; MicroCal ITC200, 25 °C, 20 mM Tris pH 8.5, 200 mM NaCl or 20 mM MES pH 6.5, 200 mM NaCl; 1–2 mM in the syringe into 30–50 μM in the cell; one-site binding model
T1 construct: ERH-2, C. elegans, amplified from a cDNA library; also called wild type ERH-2; source: E. coli BL21(DE3), purified (Ni-NTA, TEV, second Ni-NTA); not shown: His tag (from the Ni-NTA purification), N-terminal, cleaved
T1 sequence (looked up): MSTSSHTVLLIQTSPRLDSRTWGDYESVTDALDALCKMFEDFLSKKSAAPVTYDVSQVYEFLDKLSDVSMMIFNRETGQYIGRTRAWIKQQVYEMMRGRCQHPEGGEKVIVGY

[2] = biological target: T2, PICS-1^5-282 (almost full-length PICS-1) (C. elegans, UniProt O76616 5-282); assay: SEC; ERH-2 and TOFU-6^RRM mixed with PICS-1 5-282, PICS-1 5-200 or PICS-1 ΔEBM; Superose 6 Increase 10/300 GL; 20 mM Tris pH 8.5, 200 mM NaCl; peaks analysed by SDS-PAGE
T2 construct: Cloned into pET28-MHL; Two copies in the 2:2:2 complex with ERH-2 and TOFU-6^RRM; source: E. coli BL21(DE3), purified (Ni-NTA, TEV cleavage, second Ni-NTA); not shown: His tag (inferred from the Ni-NTA purification), N-terminal, cleaved
T2 sequence (looked up): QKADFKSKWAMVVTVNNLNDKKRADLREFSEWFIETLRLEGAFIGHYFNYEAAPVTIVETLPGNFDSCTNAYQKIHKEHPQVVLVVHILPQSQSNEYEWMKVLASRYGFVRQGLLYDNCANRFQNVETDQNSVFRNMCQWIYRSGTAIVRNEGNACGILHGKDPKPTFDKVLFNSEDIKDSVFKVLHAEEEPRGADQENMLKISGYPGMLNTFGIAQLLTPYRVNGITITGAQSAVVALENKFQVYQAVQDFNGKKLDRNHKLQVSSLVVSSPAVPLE

PICS-1^5-282 = biological target: T3, PICS-1^5-282 (C. elegans, UniProt O76616 5-282); assay: SEC; ERH-2 and TOFU-6^RRM mixed with PICS-1 constructs, Superose 6 Increase 10/300 GL, 20 mM Tris hydrochloride pH 8.5, 200 mM NaCl; fractions on SDS-PAGE
T3 construct: Cloned into pET28-MHL; also called almost full-length PICS-1; source: E. coli BL21(DE3), purified (Ni-NTA, TEV, second Ni-NTA); not shown: His tag (from the Ni-NTA purification), N-terminal, cleaved
T3 sequence (looked up): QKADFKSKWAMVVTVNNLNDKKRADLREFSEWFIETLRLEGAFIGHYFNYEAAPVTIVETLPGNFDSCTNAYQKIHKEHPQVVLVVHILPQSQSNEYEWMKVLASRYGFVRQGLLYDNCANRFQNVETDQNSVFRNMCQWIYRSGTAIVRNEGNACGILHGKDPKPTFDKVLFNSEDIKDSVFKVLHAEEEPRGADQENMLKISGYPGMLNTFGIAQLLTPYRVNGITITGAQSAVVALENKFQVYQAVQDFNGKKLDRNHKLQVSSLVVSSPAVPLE

[3] = biological target: B3; assay: ITC; MicroCal ITC200, 25 °C, 20 mM Tris pH 8.5, 200 mM NaCl or 20 mM MES pH 6.5, 200 mM NaCl; 1–2 mM in the syringe into 30–50 μM in the cell; one-site binding model
[4] = biological target: T4, ERH-2^1-103-(Gly-Ser-Ser)7-PICS-1^180-200 fusion protein (C. elegans, UniProt Q20057 1-103; O76616 180-200); assay: ITC; MicroCal ITC200, 25 °C; 20 mM Tris pH 8.5, 200 mM NaCl or 20 mM MES pH 6.5, 200 mM NaCl; 1-2 mM protein or peptide in the syringe titrated into 30-50 μM protein in the cell; one-site model; Kd mean ± SD of a minimum of two experiments
T4 construct: ERH-2, C. elegans, residues 1-103; 21-aa linker (Gly-Ser-Ser)7; PICS-1 (PID-3), C. elegans, EBM, residues 180-200; the methods describe only the 1-103 fusion; also called ERH-2-(GSS)7-PICS-1180-200; ERH-2-(GSS)7-PICS-1; source: E. coli BL21(DE3), purified (Ni-NTA, TEV cleavage, second Ni-NTA, Superdex 75); not shown: His tag (inferred from the Ni-NTA purification), N-terminal, cleaved
T4 chain: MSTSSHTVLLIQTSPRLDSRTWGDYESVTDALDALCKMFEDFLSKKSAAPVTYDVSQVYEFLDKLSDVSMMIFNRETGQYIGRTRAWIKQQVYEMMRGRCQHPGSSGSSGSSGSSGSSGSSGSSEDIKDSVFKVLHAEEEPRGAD

ERH-2 [5] = biological target: B6; assay: as above
[6] = biological target: T5, PICS-1^5-200 (PICS-1^ΔRRM) (C. elegans, UniProt O76616 5-200); assay: SEC; ERH-2 and TOFU-6^RRM mixed with PICS-1 5-282, PICS-1 5-200 or PICS-1 ΔEBM; Superose 6 Increase 10/300 GL; 20 mM Tris pH 8.5, 200 mM NaCl; peaks analysed by SDS-PAGE
T5 construct: PICS-1 (PID-3), C. elegans, residues 5-200 (lacks the RRM domain); Cloned into pET28-MHL; source: E. coli BL21(DE3), purified (Ni-NTA, TEV cleavage, second Ni-NTA); not shown: His tag (inferred from the Ni-NTA purification), N-terminal, cleaved
T5 sequence (looked up): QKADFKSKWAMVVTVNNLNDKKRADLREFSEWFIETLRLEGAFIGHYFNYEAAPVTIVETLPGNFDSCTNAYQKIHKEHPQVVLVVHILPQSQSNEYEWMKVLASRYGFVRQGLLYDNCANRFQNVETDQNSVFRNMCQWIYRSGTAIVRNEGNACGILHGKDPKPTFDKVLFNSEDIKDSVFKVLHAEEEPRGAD

Kd (ERH-2 [1]): 3.2 µM
B1: SUMO-fused TOST-1^34-54 (domain or fragment, C. elegans, UniProt Q18490 34-54, looked up)
chain: NKRITLNERFGVLEKGYTIQA
notes: TOST-1, C. elegans, residues 34-54; Cloned into pET28-SUMO; also called TOST-1 fragment; source: E. coli BL21(DE3), purified (Ni-NTA); not shown: SUMO, N-terminal, kept

binding result [2]: binds
B2: TOFU-6 RRM domain (TOFU-6^RRM, residues 2-92) (domain or fragment, C. elegans, UniProt Q09293 2-92, looked up)
chain: ASSSTAYYLKDAGFHIRNIPKAWNDWNLFHVFQNFGKVSYCRVVGQSNDGQVQLGFVNMMSVADADEVRKNLNDGNLIGENFTLKVTDHKN
notes: TOFU-6, C. elegans, RRM domain, residues 2-92; source: E. coli BL21(DE3), purified (Ni-NTA, TEV cleavage, second Ni-NTA); not shown: His tag (inferred from the Ni-NTA purification), N-terminal, cleaved

Second part, the binder before the results:

Binder: B3
binding result (PICS-1^5-282): binds

B4: PICS-1^RRM F217E (domain or fragment, C. elegans, UniProt O76616 201-282, looked up)
chain: QENMLKISGYPGMLNTEGIAQLLTPYRVNGITITGAQSAVVALENKFQVYQAVQDFNGKKLDRNHKLQVSSLVVSSPAVPLE
notes: Cloned into pET28-MHL; the homodimer is disrupted by the mutation; source: E. coli BL21(DE3), purified (Ni-NTA, TEV, second Ni-NTA, Superdex 75); not shown: His tag (from the Ni-NTA purification), N-terminal, cleaved
Kd [3]: 0.57 µM

B5: SUMO-PID-1^50-70 (domain or fragment, C. elegans, UniProt Q19541 50-70, looked up)
chain: TNLHRKVTLSDRFELAALGYE
notes: PID-1, C. elegans, residues 50-70; Fused to the C-terminus of SUMO; the Kds are for the SUMO fusion; also called PID-1 fragment; source: E. coli BL21(DE3), purified (Ni-NTA); not shown: SUMO, N-terminal, kept
stoichiometry N [4]: 1.3
stoichiometry N (ERH-2 [5]): 1

Binder: B6
binding result [2]: binds
binding result [6]: binds
